From publication PMC11208920, “The binding of LARP6 and DNAAF6 in biomolecular condensates influences ciliogenesis of multiciliated cells”

What was measured:
[1] = target: T1, rLARP6 (recombinant human LARP6, LAM+RRM only) (Homo sapiens, UniProt Q9BRS8 73-303); assay: EMSA; 5 mM Mg2+; monomer and dimer complexes; 10 mM Tris pH 7.5, 100 mM KCl, 5 mM MgCl2, room temperature, 10 min; 6% native gel, SYBR Gold; settings: protein: recombinant
T1 sequence: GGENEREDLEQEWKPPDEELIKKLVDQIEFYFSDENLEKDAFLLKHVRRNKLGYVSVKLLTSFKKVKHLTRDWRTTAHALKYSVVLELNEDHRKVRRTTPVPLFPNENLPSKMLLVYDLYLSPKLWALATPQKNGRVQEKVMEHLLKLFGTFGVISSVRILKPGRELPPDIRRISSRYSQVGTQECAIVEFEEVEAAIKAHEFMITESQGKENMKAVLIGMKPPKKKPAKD

[2] = target: T1, rLARP6 (recombinant human LARP6, …); assay: EMSA; 5 mM Mg2+; 10 mM Tris pH 7.5, 100 mM KCl, 5 mM MgCl2, room temperature, 10 min; 6% native gel, SYBR Gold; settings: protein: recombinant; label: SYBR Gold stain

## CCACAAAGAGUCUACAUGUCUAGGGUCUAGACAUGUUCAGCUUUGUGG (structured_RNA) [hCOL1A2 WT RNA]
[1]; label: SYBR Gold stain
  binding result: binds

## CCACAAAGUGACUACAUGUCUAGGGUCUAGACAUGUUAUUCUUUGUGG (structured_RNA) [hCOL1A2 MUT RNA]
[2]
  binding result: no binding

B1: xTUBA1CL RNA probe (ssRNA)
RNA: GAGGGAGAAGAAUAUUAAAUAAUAAAUCAAAAGCUUCACAAUAAUACCUGCAGAUUUUGUUUGAAAUAAUAAUUUUGAAUAAAUACGUUUUUAUCUUGUA
[1]; label: SYBR Gold stain (Results text says radiolabeled)
  binding result: binds
